Test results from US20030064943A1.

Molecular target: human transforming growth factor β2 (TGFβ2) (human) (UniProt P61812)
Test: cell-based or functional assay

Chain of human transforming growth factor β2 (TGFβ2) (human) (P61812 303-414): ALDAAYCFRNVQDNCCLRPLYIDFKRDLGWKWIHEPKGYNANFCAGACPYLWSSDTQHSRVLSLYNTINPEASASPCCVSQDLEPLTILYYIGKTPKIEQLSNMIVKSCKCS

## latency associated peptide (LAP)
  Ki, reversal of TGFβ2-mediated inhibition of 3H-thymidine incorporation in mink lung epithelial cells: 0.5 nM
